Columns and labels:
[1] = target: T1, human Tigit extracellular domain recombinant protein hTigit-his (Acrobiosystem, Cat.TIT-H2H3) (human, UniProt Q495A1 22-141); assay: BLI epitope binning (ForteBIO QKe), hTigit-his on anti-Penta-HIS sensor; competitor R0223
T1 construct: extracellular domain; Bought; not shown: his tag
T1 sequence (looked up): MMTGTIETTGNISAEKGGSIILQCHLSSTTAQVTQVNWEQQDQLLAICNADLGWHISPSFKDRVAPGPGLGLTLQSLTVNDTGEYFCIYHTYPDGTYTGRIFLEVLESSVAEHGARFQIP
Experimental: (§1) Epitope competition analysis was performed on an anti-human TIGIT antibody with an MD ForteBIO QKe platform. An experimental method included: a human Tigit extracellular domain recombinant protein hTigit-his (Acrobiosystem, Cat.TIT-H2H3, lot-1336-76GF1-F9) carrying a his tag was diluted with an equilibration buffer (1×PBS+0.02% Tween 20), until the final concentration was 1.5 μg/ml. The anti-human Tigit antibody was diluted with the equilibration buffer (1×PBS+0.02% Tween 20), the final concentration being 5 μg/ml. After an anti-Penta-HIS biosensor (ForteBIO, Cat. 18-5122) was fully hydrated, first the hTigit-his recombinant protein was solidified for 180 seconds, then equilibrated for 30 seconds, and bound to the first anti-human Tigit antibody for 180 seconds, then equilibrated for 30 seconds, and then bound to the second anti-human Tigit antibody, binding time being 300 seconds. The whole reaction was performed at 25° C. and 1000 rpm; and finally, Octet analysis software was used to perform epitope binning analysis.

[2] = target: T1, human Tigit extracellular domain …; assay: BLI epitope binning (ForteBIO QKe), hTigit-his on anti-Penta-HIS sensor; competitor R0300
Experimental: as §1

epitope binning signal (name and unit not given) [1]: 0.0383 | epitope binning signal (name and unit not given) [2]: 0.544
B1: Tigit-18 (antibody, V domains shown)
VH: QVQLQQPGAELVRPGASVKLSCKASGYSFTSYWMNWVKQRPGQGHEWIGMIHLSNSETRLNQNFLDKATLTVDKSSSTVYLQLSSPTSEDSAVYYCARERDYYGSSYFDYWGQGTTLTVSS
VL: DIVMTQSPASLVVSLGQRATISCRTSQSVSTSSYSYMHWYQQKPGQPPKLLIKNASNLESGVPARFSASGSGTDFTLNIHPVEEEDAATYYCQHSWEIPRTFGGGTKLEIK
